{"source": "patent US20220265772A1", "about": "“USES OF DAN FAMILY BMP ANTAGONISTS FOR INHIBITING OCULAR NEOVASCULARIZATION AND TREATING OCULAR CONDITIONS” (9636137 Canada Inc., priority 2019, published 2022)", "molecules": {"B1": {"name": "DAND5: human recombinant DAND5/COCO biologically active fragment produced in E. coli, predicted 18.2 kDa monomer, R&D systems 3047-CC-050 (protein)", "chain": "MRPEPQSPRPQSWAAANQTWALGPGALPPLVPASALGSWKAFLGLQKARQLGMGRLQRGQDEVAAVTLPLNPQEVIQGMCKAVPFVQVFSRPGCSAIRLRNHLCFGHCSSLYIPGSDPTPLVLCNSCMPARKRWAPVVLWCLTGSSASRRRVKISTMLIEGCHCSPKA"}}, "key": {"[1]": {"system": "HUVECs", "assay": "Apoptosis of cultured endothelial cells (cleaved caspase 3)", "type": "cell-based, human", "conditions": "HUVECs cultured for 18 hours"}, "[2]": {"system": "retinal vascular development", "type": "in vivo, mouse", "protocol": "Animals were anaesthetized with isofluorane. A 10 μL Hamilton syringe with a glass-pulled capillary was inserted with a 45° injection angle into the vitreous. When accessing the role of DAND5 developmentally, animals were injected at P1 (DAND5:100 ng; or PBS: 1 μl) and were euthanized at P5 to quantify vascular growth. The DAND5 used for the injection was a human recombinant DAND5/COCO biologically active fragment produced in E. coli and purified by SDS-PAGE (Arg23-Ala189 with an N-terminal Met, predicted 18.2 kDa monomer, R&D systems; 3047-CC-050). During the neovascularization phase of OIR, animals were injected at P12 (2 μL) before sacrifice at P17 for quantification of neovascularization. For adult mice and laser-induced neovascularization, intravitreal injections were performed under a surgical microscope. Mice were anaesthetized with isofluorane. Pupils were dilated using 1% tropicamide. A 33-gauge needle was inserted from the limbus with a 45° injection angle into the vitreous. The direction and location of the needle was monitored through the surgical microscope.\nOcular globes were initially fixed for 15 min in 4% paraformaldehyde (PFA). Retinas or choroids were collected after eyes dissection in PBS and blocked 1 h in PBS 3% BSA 0.1% Triton X-100™. Fixation was prolonged in 1% PFA overnight for choroid extraction or eyes sectioning. Prior to sectioning, eyes were maintained in sucrose gradients (10-30%), cryo-preserved in a matrix gel and sliced in 14 μm sections on a cryostat (Leica™ CM3050S). Staining with either FITC-labeled isolectin GS 1B4 (Life technologies corporation), rhodamine phalloidin (Cedarlane Laboratories), phospho-histone H3 (Abcam), Collagen IV (Abcam) or cleaved caspase-3 (Cell Signaling) antibodies were performed on whole and/or sectioned retinas/choroids. Retinas and choroids were then mounted in fluoromount aqueous medium (Sigma-Aldrich). Quantitative analysis of tufts, vaso-obliterated or vessel areas were performed using imageJ/Swift_NV™ as previously described (1). Neovascular tuft formation was quantified by comparing the number of pixels in the affected areas with the total number of pixels in the retina. The avascular area in the retina was measured in the same way using an anti-DAND5/COCO polyclonal goat IgG antibody (AF3047, R&D systems).\nAs DAND5 prevents VEGF-induced EC sprouting, proliferation and migration, we evaluated whether it could inhibit retinal vascular development. Newborn mouse pups (P1) received intravitreal injections of recombinant DAND5 (100 ng), and retinas were harvested after 4 days (P5) (FIG. 2A).\nBlood vessels constrict in the course of vessel regression and EC retract, leaving behind empty BM sleeves."}, "[3]": {"conditions": "100 ng at P1, P5, compared with PBS-injected eyes"}}, "note": "Where two headings read alike, the source gives them in different places."}
{"molecule": "B1", "values": [{"measurement": "proportion of cleaved caspase 3 (CC3)-positive cells", "setting": "[1]", "result": "did not show differences in the proportion of cleaved caspase 3 (CC3)-positive cells"}, {"measurement": "number of vascular branch points", "setting": "[2]; 100 ng at P1, P5", "result": "reduced number of vascular branch points"}, {"measurement": "microvessel density (ratio of vessel area to vascularized area)", "setting": "[2]; [3]", "result": "pronounced reduction"}, {"measurement": "vessel area (area covered by vessels)", "setting": "[2]; [3]", "result": "pronounced reduction of vessel area"}, {"measurement": "EC proliferation in retinal vasculature (pH3)", "setting": "[2]; P1 injection, P5", "result": "reduced EC proliferation"}, {"measurement": "empty type IV collagen (ColIV) BM sleeves", "setting": "[2]; P1 injection, P5", "result": "significantly higher numbers of empty type IV collagen (ColIV) BM sleeves"}, {"measurement": "inhibition of retinal neovascularization compared with VEGF inhibitor (mouse Flt1 Fc)", "setting": "[2]; P1 injection, P5", "result": "significantly more pronounced than that of a VEGF inhibitor (mouse Flt1 Fc)"}, {"measurement": "empty type IV collagen (ColIV) BM sleeves", "setting": "[2]; P1 injection, P5, listed as Dand5", "result": "increased"}, {"measurement": "blood vessel development", "setting": "[2]; intravitreal 100 ng at P1, retinas at P5", "result": "dramatic inhibition of blood vessel development"}, {"measurement": "apoptosis in retinal vasculature (CC3)", "setting": "[2]; mouse, in vivo", "result": "no change in apoptosis"}, {"measurement": "necroptosis in retinal vasculature (Rip3)", "setting": "[2]; mouse, in vivo", "result": "no change in apoptosis (FIG. 11D, E) or necroptosis"}, {"measurement": "photoreceptor morphology or apoptosis", "setting": "[2]; mouse, in vivo", "result": "did not affect"}, {"measurement": "retinal pericyte coverage", "setting": "[2]; mouse, in vivo", "result": "did not affect retinal pericyte coverage"}]}
